# From US20220213145A1 (Bicycle, published 2022)
# Starred links: 1 amine or outer side, 2 acyl side, 3 side chain; linkers in the order of their positions; H or OH if unused. Positions of bridges follow the written chain, without caps; N, C: chain ends. Non-standard residues stand in square brackets, D forms with d. Primed or numbered codes have the meaning given here. No end group written: not given here. TATA′ = 1,3,5-triacryloylhexahydro-1,3,5-triazine scaffold bound to the three cysteines; TATA = O=C(CC[*:1])N1CN(C(=O)CC[*:2])CN(C(=O)CC[*:3])C1; Phe(4-Me) = Cc1ccc(C[C@H](N)C(=O)O)cc1; Ser(ΨH,HPro) = O=C(O)[C@@H]1COCN1; Nle = CCCC[C@H](N)C(=O)O; PEG3′ = not defined here; Ac5c = NC1(C(=O)O)CCCC1
# Key:
# [1] = target: T1, Recombinant human CD137 homotrimer (R&D systems), biotinylated (human, UniProt Q07011 24-186, limits assumed, biotinylated with EZ-Link Sulfo-NHS-LC-LC-Biotin); assay: SPR (Biacore T200), biotinylated CD137 on streptavidin
# T1 construct: also called biotinylated CD137
# Protocol: (§1) Biacore experiments were performed to determine kₐ (M⁻¹s⁻¹), kd (s⁻¹), KD (nM) values of peptides binding to human CD137 protein. […] The protein was desalted to remove uncoupled biotin using spin columns into PBS.
# (§2) For analysis of binding, a Biacore T200 instrument was used utilising a XanTec CMD500D chip. Streptavidin was immobilized on the chip using standard amine-coupling chemistry at 25° C. with HBS-N (10 mM HEPES, 0.15 M NaCl, pH 7.4) as the running buffer. Briefly, the carboxymethyl dextran surface was activated with a 7 min injection of a 1:1 ratio of 0.4 M 1-ethyl-3-(3-dimethylaminopropyl) carbodiimide hydrochloride (EDC)/0.1 M N-hydroxy succinimide (NHS) at a flow rate of 10 μl/min. For capture of streptavidin, the protein was diluted to 0.2 mg/ml in 10 mM sodium acetate (pH 4.5) and captured by injecting 120 μl of onto the activated chip surface. Residual activated groups were blocked with a 7 min injection of 1 M ethanolamine (pH 8.5) and biotinylated CD137 captured to a level of 800-1800 RU. Buffer was changed to PBS/0.05% Tween 20 and a dilution series of the peptides was prepared in this buffer with a final DMSO concentration of 0.5%. The top peptide concentration was 500 nM or 10 μM with 6 further 3-fold (500 nm), or 2-fold (10 μM) dilutions in PBS/0.05% Tween 20. The SPR analysis was run at 25° C. at a flow rate of 90 μl/min with 60 seconds association and 100-600 seconds dissociation. After each cycle, a regeneration step (10 μl of 10 mM glycine pH 2) was employed. Data were corrected for DMSO excluded volume effects. All data were double-referenced for blank injections and reference surface using standard processing procedures and data processing and kinetic fitting were performed using Scrubber software, version 2.0c (BioLogic Software). Data were fitted using mass transport model allowing for mass transport effects where appropriate.
# [2] = target: T1, Recombinant human CD137 homotrimer (R&D …); assay: SPR (Biacore T200), biotinylated CD137 on streptavidin (n = 2)
# Protocol: as §1
# as §2, with “The SPR analysis was run at 25° C. at a flow rate of 90 μl/min with 60 seconds association and 100-600 seconds dissociation. After each cycle, a regeneration step (10 μl of 10 mM glycine pH 2) was employed. Data were corrected for DMSO excluded volume effects. All data were double-referenced for blank injections and reference surface using standard processing procedures and data processing and kinetic fitting were performed using Scrubber software, version 2.0c (BioLogic Software). Data were fitted using mass transport model allowing for mass transport effects where appropriate.” left out
# [3] = target: T2, human CD137 protein (direct binding assay) (human, UniProt Q07011 24-186, limits assumed); assay: FP direct binding
# T2 construct: Soluble CD137 protein titrated from 3 uM in the fluorescence polarisation assay; also called hCD137; TNFRSF9
# Protocol: Affinity of the peptides of the invention for human CD137 (Ki) was determined using a fluorescence polarisation assay, in accordance with the methods disclosed in WO 2016/067035. […] CD137 protein was titrated starting at 3 μM in the same assay buffer as the peptide to assay 1 nM peptide in a total volume of 25 μL in black walled and bottomed low bind low volume 384 well plates. […] The concentrations of CD137 protein were 1 in 2 serial dilutions to give 12 different concentrations starting at 3 μM. Measurements were conducted on a BMG PHERAstar FS equipped with an FP 485 520 520 optic module at 25° C. with 200 flashes per well and a positioning delay of 0.1 second. Alternatively, the measurements were performed using Envision (PerkinElmer) equipped with FITC FP Dual Enh mirror, set to 30 flashes. Each well was measured every 5 minutes for 60 minutes. The gain used for analysis was determined for each tracer at the end of the 60 minutes where there was no protein in the well. The mP were fit to a standard 1:1 binding model with a quadratic equation to generate a Kd value.
# [4] = target: CD137 on Jurkat reporter cells (Promega CD137 luciferase reporter assay) (UniProt Q07011 24-255, limits assumed); assay: cell-based or functional assay
# Chain of CD137 on Jurkat reporter cells (Promega CD137 luciferase reporter assay) (Q07011 24-255 limits assumed): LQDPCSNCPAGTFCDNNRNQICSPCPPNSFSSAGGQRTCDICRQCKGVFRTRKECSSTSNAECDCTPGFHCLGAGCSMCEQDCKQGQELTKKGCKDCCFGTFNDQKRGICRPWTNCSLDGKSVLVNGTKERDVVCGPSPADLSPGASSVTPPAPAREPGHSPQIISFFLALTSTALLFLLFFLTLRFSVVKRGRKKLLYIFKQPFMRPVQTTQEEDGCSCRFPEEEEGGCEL
Binder,Kd [1],other results
"ACIEEGQYCFADPYXCA (ACIEEGQYCF[dA]DPY[Nle]CA; cyclised on TATA, also called A-(74-01-04)-A D-Ala8 Nle12) [BCY8217]",500 nM,–
"Ac-ACIPE[dA]PYCFADPY[Nle]CA (linker 2-9-16 via TATA′, also called Ac-(74-01-04) Pro2 DAla4 Pro5 Nle12) [BCY7961]",10 nM,–
"Ac-ACIEE[Ac5c]QYCFADPY[Nle]CA (linker 2-9-16 via TATA, also called Ac-(74-01-04) Ac5c4 Nle12) [BCY8665]",–,Kd [2]: 200 nM
"[PEG3′]ACIEE[dF]QYCFADPY[Nle]CA (linker 3-10-17 via TATA; also: fluorescein-labelled, also called [PEG3]-(74-01-04) D-Phe4 Nle12) [BCY7166]",–,Kd [3]: 10 nM
"[PEG3′]ACIEEGQYCFAAPY[Nle]CA (linker 3-10-17 via TATA; also: fluorescein-labelled, also called [PEG3]-(74-01-04) Ala9 Nle12) [BCY7290]",–,Kd [3]: > 3000 nM
"ACIEEGQYCFADPYXCA ([PEG3]ACIEEGQYCFADPY[tBuAla]CA; fluorescein-labelled; cyclised on TATA, also called [PEG3]-(74-01-04) tBuAla12) [BCY7210]",–,Kd [3]: 70 nM
ACIEEGQYCFADPYMCA (linker 2-9-16 via TATA) [BCY592],–,IC50 (% inhibition of CD137L-induced NF-kB luciferase activity in CD137 Jurkat reporter cells) [4]: 3960 nM

# The next lines start with results.
Kd [1],Binder,other results
1000 nM,"Ac-ACIEEGQ[Phe(4-Me)]CFADPY[Nle]CA (linker 2-9-16 via TATA, also called Ac-(74-01-04) 4MePhe6 Nle12) [BCY8670]",–
1000 nM,"ACIEEGQYCFXDPYXCA ([Ac]ACIEEGQYCF[Abu]DPY[Nle]CA; cyclised on TATA, also called Ac-(74-01-04) Abu8 Nle12) [BCY8676]",–
200 nM,"Ac-AC[Ac5c]EEGQYCFADPY[Nle]CA (linker 2-9-16 via TATA, also called Ac-(74-01-04) Ac5c1 Nle12) [BCY8658]",–
20 nM,"Ac-ACI[Ser(ΨH,HPro)]EGQYCFADPY[Nle]CA (linker 2-9-16 via TATA′, also called Ac-(74-01-04) Oxa2 Nle12) [BCY7958]",–
